Experimental data reported in the DeepSol protein solubility set.

test: soluble on expression in E. coli; label from the status in PepcDB or PDB records

Sequence | soluble on expression in E. coli
SLLSETSTALGLQELSNITMPVIFNEPLSFLQRLTEYMEHTYLIHKASSLSDPVERMQCVAAFAVSAVASQWERTGKPFNPLLGETYELVRDDLGFRLISEQVSHHPPISAFHAEGLNNDFIFHGSIYPKLKFWGKSVEAEPKGTITLELLDHNEAYTWTNPTCCVHNIIVGKLWIEQYGNVEIINHKTGDKCVLNFKPCGLFGKELHKVEGYIQDKSKKKLCALYGKWTECLYSVDPATFDAYKKNDKKNTEEKKNSKQTSSSEESDEMPVPDSESVFIIPGSVLLWRIAPRPPNSAQMYNFTSFAMVLNEVDKEMESVIPKTDCRLRPDIRAMENGEIDLASEEKKRLEEKQRAARKNRSKSEEDWKTRWFHQGPNPYSGAQDWIYSGSYWDRNYFNLPDIY | soluble
SLNGKYATLKDVAKLAGTTASTVSYVLNDSKERYISDEMRRRVLEAAKDLNYVKCSVASSLKGEKRKIIAVLVPQFSNQFFTRIILAIENVADQFDYVLTIYNTFDDPKREKVIINRMAQHRMDGYIIIPTYEGVKNTEQLRKIGIPMVVMDRPLEGIDDFIWVTTNNYQCGYKGAHYLALKGHRNIAFIGWNSRINDLDSRKNGFWDALAASGITSEEAIVIDGEFSEEDGYKMTKNLLKTRPDITAIFYGYNVQAQGGVRYLMKENIEIGKDISVMLIGSPEWAVTGYNNFTHIEQDEYNLGKSAATILFSIINGENQENIQNIIQDCSLYEGNSVYDITKEG | soluble
SLNIKDEHIDSVCSLLDQLVGNVSFKNLFTGYGLFHKEETMFAIWQNKKLYLRGEGVLAIQLTKLGCEPFTTNELNKRFVLSQYYALSDQILRSNRLCRKLIILSIKQILEQKLECTLRKLNRLKDLPNLTIKHERALIKVGITNVAMLREIGAENALVELKKSGSGATLDFYWKLVCALQNKNSQMLSQAEKERLLKKLNEVWRKNGLKGYRKLDDE | not soluble
SLNSSIDVDSLMRSVSRVFKFIDMPTEGKPTKSTKPYKNGQLSKVMIIENSHVKKDDIWPSGGQMTVKDLTAKYTEGGNAILENISFSISPGQRVGLLGRTGSGKSTLLSAFLRLLNTEGEIQIDGVSWDSITLQQWRKAFGVIPQKVFIFSGTFRKNLDPYEQWSDQEIWKVADEVGLRSVIEQFPGKLDFVLVDGGCVLSHGHKQLMCLARSVLSKAKILLLDEPSAHLDPVTYQIIRRTLKQAFADCTVILCEHRIEAMLECQQFLVIEENKVRQYDSIQKLLNERSLFRQAISPSDRVKLFPHRNSSKCKSKPQIAALKEETEEEVQDTRL | soluble
SLPKQIDTILINIGQLLTMESSGPRAGKSMQDLHVIEDAVVGIHEQKIVFAGQKGAEAGYEADEIIDCSGRLVTPGLVDPHTHLVFGGSREKEMNLKLQGISYLDILAQGGGILSTVKDTRAASEEELLQKAHFHLQRMLSYGTTTAEVKSGYGLEKETELKQLRVAKKLHESQPVDLVSTFMGAHAIPPEYQNDPDDFLDQMLSLLPEIKEQELASFADIFTETGVFTVSQSRRYLQKAAEAGFGLKIHADEIDPLGGAELAGKLKAVSADHLVGTSDEGIKKLAEAGTIAVLLPGTTFYLGKSTYARARAMIDEGVCVSLATDFNPGSSPTENIQLIMSIAALHLKMTAEEIWHAVTVNAAYAIGKGEEAGQLKAGRSADLVIWQAPNYMYIPYHYGVNHVHQVMKNGTIVVNREGAILG | soluble
SLRTEQEMMDVILTIAKKEERIRAVYMNGSRTNSNVPKDLFQDYDIVYVVTDIAPFIQEQQWLKKFGEPLMIQEPDQLDAGIGVNRDFSRRYAFLMLFTDGNRIDLTLQTKETMREVYENDTLTVPLLDKDHCLPPIPPPSDSDYHVKEPTEGEFISCTNNFWWCLQNVAKGIWRDELPYAKQMFELTTRASLDEMVNWWIGLENDFQLSTGKLGKYFKKHLPPPYWAMYEATYANSDYEQMWESIFIACDLFRTLAKDVAAACSFTYPETDDRNMTDYLHRVKNLSADATDM | soluble
SLSANLVGITGIARRLVQDGSIEEATARTAQNQAMAAKVPLPQWLIDKKLVSAAKLAAANALEFGMPLLDVSAFDHNHNAMNLVDEELLQKHRVLPLFKRGNRLFVGISNPTQTQALDDIKFHTNLVVEPILVDEDQIRRTLEQWQSRKG | soluble
SLSRRGIDFLNDWIAEHHPDTLTEDPTAIADLADQLMAAAEKQGLSRRDISEEVGSVFQVILEAMQNRSGGRLYSSRWG | soluble
SLSRYLLTDSPAVCVLSGERGVGTTTVLKRILNKTKNAVPIYINCPYDGYAALLPELAQLLGLDAESSEKDILQHLRNSEQCYLIAFDNAQRLVKPKVNGLVELMKLTNLLRRARKSHRVVLSIDKSSWRFIDRARGERLLFDLVTFMP | not soluble
SLSSPGDIPAEDFADHVRKNERDSNCGFADEYQQLSLVGHSQSQMVASASENNAKNRYRNVLPYDWSRVPLKPIHEEPGSDYINASFMPGLWSPQEFIATQGPLPQTVGDFWRLVWEQQSHTLVMLTNCMEAGRVKCEHYWPLDSQPCTHGHLRVTLVGEEVMENWTVRELLLLQVEEQKTLSVRQFHYQAWPDHGVPSSPDTLLAFWRMLRQWLDQTMEGGPPIVHCSAGVGRTGTLIALDVLLRQLQSEGLLGPFSFVRKMRESRPLMVQTEAQYVFLHQCICGSSNSQPRPQPRRKSRMRMSKTSSTRTWPPSRPTSWRSK | soluble
SLTQIQPGVEKFIKDFNDAKKKGEHAYDMTLSYQNFDKGFFNSRFQMQMTFDNGAPDLNIKPGQKVVFDVDVEHGPLPITMLMHGNVIPALAAAKVNLVNNELTQPLFIAAKNKSPVEATLRFAFGGSFSTTLDVAPAEYGKFSFGEGQFTFNGDGSSLSNLDIEGKVEDIVLQLSPMNKVTAKSFTIDSLARLEEKKFPVGESESKFNQINIINHGEDVAQIDAFVAKTRLDRVKDKDYINVNLTYELDKLTKGNQQLGSGEWSLIAESIDPSAVRQFIIQYNIAMQKQLAAHPELANDEVALQEVNAALFKEYLPLLQKSEPTIKQPVRWKNALGELNANLDISIADPAKSSSSTNKDIKSLNFDVKLPLNVVTETAKQLNLSEGMDAEKAQKQADKQISGMMTLGQMFQLITIDNNTASLQLRYTPGKVVFNGQEMSEEEFMSRAGRFVH | soluble
SLTTLKTMTRVQLGAMGEALAVDYLTSMGLRILNRNWRCRYGELDVIACDAATRTVVFVEVKTRTGDGYGGLAHAVTERKVRRLRRLAGLWLADQEERWAAVRIDVIGVRVGPKNSGRTPELTHLQGIG | soluble
SLVCKNALQDLSFLEHLLQVKYAPKTWKEQYLGWDLVQSSVSAQQKLRTQENPSTSFCQQVLADFIGGLNDFHAGVTFFAIESAYLPYTVQKSSDGRFYFVDIMTFSSEIRVGDELLEVDGAPVQDVLATLYGSNHKGTAAEESAALRTLFSRMASLGHKVPSGRTTLKIRRPFGTTREVRVKWRYVPEGVGDLATIAPSIRAPQLQKSMRSFFPKKDDAFHRSSSLFYSPMVPHFWAELRNHYATSGLKSGYNIGSTDGFLPVIGPVIWESEGLFRAYISSVTDGDGKSHKVGFLRIPTYSWQDMEDFDPSGPPPWEEFAKIIQVFSSNTEALIIDQTNNPGGSVLYLYALLSMLTDRPLELPKHRMILTQDEVVDALDWLTLLENVDTNVESRLALGDNMEGYTVDLQVAEYLKSFGRQVLNCWSKGDIELSTPIPLFGFEKIHPHPRVQYSKPICVLINEQDFSCADFFPVVLKDNDRALIVGTRTAGAGGFVFNVQFPNRTGIKTCSLTGSLAVREHGAFIENIGVEPHIDLPFTANDIRYKGYSEYLDKVKKLVCQLINNDGTIILAEDGSFHHHHHH | soluble
SMDMKQQNFCVVELLPSDPEYNTVASKFNQTCSHFRIEKIERIQNPDLWNSYQAKKKTMDAKNGQTMNEKQLFHGTDAGSVPHVNRNGFNRSYAGKNAVAYGKGTYFAVNANYSANDTYSRPDANGRKHVYYVRVLTGIYTHGNHSLIVPPSKNPQNPTDLYDTVTDNVHHPSLFVAFYDYQAYPEYLITFRK | soluble
SMKEPSQQRVKRWGFGMDEALKDPVGREQFLKFLESEFSSENLRFWLAVEDLKKRPIKEVPSRVQEIWQEFLAPGAPSAINLDSKSYDKTTHNVKEPGRYTFEDAQEHIYKLMKSDSYPRFIRSSAYQELLQAKKKSGNSMDRRTS | soluble
SMQEEDTFRELRIFLRNVTHRLAIDKRFRVFTKPVDPDEVPDYVTVIKQPMDLSSVISKIDLHKYLTVKDYLRDIDLICSNALEYNPDRDPGDRLIRHRACALRDTAYAIIKEELDEDFEQLCEEIQESR | soluble
SNAAQISDGKQYITLDKPVAGEPQVLEFFSFYCPHCYQFEEVLHVSDNVKKKLPEGTKMTKYHVEFLGPLGKELTQAWAVAMALGVEDKVTVPLFEAVQKTQTVQSAADIRKVFVDAGVKGEDYDAAWNSFVVKSLVAQQEKAAADLQLQGVPAMFVNGKYQINPQGMDTSSMDVFVQQYADTVKYLVDKK | soluble
SNAMGEAATKSDRQQNQTRLWLNILRLHGLVFGDLNRQLLDETGLSLAKFDAMAQLARNPDGLSMGKLSGALKVTNGNVSGLVNRLIKDGMVVKAMSADDRRSFSAKLTDAGLTTFKQASEAHNRILAELLRAVSDQDMVEASAALRGILESMQTGASLD | soluble
SNAMKLALITDTSAYLPEAIENHEDVYVLDIPIIIDGKTYIEGQNLTLDQYYDKLAASKELPKTSQPSLAELDDLLCQLEKEGYTHVLGLFIAAGISGFWQNIQFLIEEHPNLTIAFPDTKITSAPQGNLVRNALMCSREGMDFDVIVNKIQSQIEKIEGFIVVNDLNHLVKGGRLSNGSAIIGNLLSIKPVLHFNEEGKIVVYEKVRTEKKALKRLAEIVKEMTADGEYDIAIIHSRAQDKAEQLYNLLAKAGLKDDLEIVSFGGVIATHLGEGAVAFGITPKN | soluble
SNAMKQIIDIENWERKENFNFFRHFQNPQLSITSEVECGGARQRAKAAGQSFFLHYLYAVLRAANEIPEFRYRIDPDGRVVLYDTIDMLSPIKIKENGKFFTTRFPYHNDFDTFYQEARLIIDAIPEDGDPYAAENEEVADGDYGLILLSATPDLYFTSITGTQEKRSGNNYPLLNAGKAIIREGRLVMPIAMTIHHGFIDGHHLSLFYKKVEDFLK | soluble
SNAMLDITTITRQNVTSVVGYYSDAKDDYYSKDSSFTSWQGTGAEALGLSGDVESARFKELLVGEIDTFTHMQRHVGDAKKERLGYDLTFSAPKGVSMQALIHGDKTIIEAHEKAVAAAVREAEKLAQARTTRQGKSVTQNTNNLVVATFRHETSRALDPDLHTHAFVMNMTQREDGQWRALKNDELMRNKMHLGDVYKQELALELTKAGYELRYNSKNNTFDMAHFSDEQIRAFSRRSEQIEKGLAAMGLTRETADAQTKSRVSMATREKKTEHSREEIHQEWASRAKTLGIDFDNREWQG | soluble
SNAMNVWQVVGYKHSGKTTLMEKWVAAAVREGWRVGTVKHHGHGGEPARPEGVDSVRHERAGAVATAVEGDGLLQLHLRRPLWRLDDVLALYAPLRLDLVLVEGYKQERHPKVVLVRSEEDWASLQHLANIRAVIAWEPLEGPLAHPVFSLADDDEYIPWLMNEVRTRT | soluble
SNAMSMAYEEYMRQLVVPMRRELTGAGFEELTTAEEVENFMEKAEGTTLVVVNSVCGCAAGLARPAATQAVLQNDKTPDNTVTVFAGQDKEATAKMREYFTGAAPSSPSMALLKGKEVVHFIPRHEIEGHDMEEIMKNLTAAFDAHC | soluble
SNAVRGFLIVGNKAFTQPFSLNDLPGAGRMDVLCRCTSQALFISHGIRRDVEVYLLLLGPPSPPKSILIKGDEVRRMSPDERNVAGHIKKALAVECGKSWKKVHSGVYVSRKGLEELIEELSEKYSIIYLKEDGVDISNAQLPPNPLFVIGDHEGLTEEQEKVVERYAALKLSLSPLSLLAEQCVVIAHHHLDRLQF | soluble
SNAVTATQLAAKATTLYYLHKQAMTDEVSLLLEQALQLEPYNEAALSLIANDHFISFRFQEAIDTWVLLLDSNDPNLDRVTIIESINKAKKLM | soluble
